Results taken from the supplement of paper PMC9112550, “Optimization of the antimicrobial peptide Bac7 by deep mutational scanning” (BMC Biology, 2022).

Tested on: Escherichia coli TOP10
Assay: shrunken log2 fold change of peptide-encoding DNA abundance (4.5 h post-induction vs induction); higher = less antimicrobial activity (less host growth inhibition)
Details: time post-induction: 4.5 h; library: site-saturation at positions 5, 18, 19, 20
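Further: peptides expressed intracellularly from a pBAD plasmid library in pooled LB shake-flask culture, induced with 0.3% L-arabinose, DNA abundance read by NGS, three biological replicates, DESeq2 with apeglm shrinkage.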

Sequence	shrunken log2 fold change
RRIRCRPPRLPRPRPRPITQPRP	-0.0791
RRIRCRPPRLPRPRPRPNMTPRP	-0.229
RRIRARPPRLPRPRPRPMPWPRP	0.483
RRIRRRPPRLPRPRPRPCWCPRP	-0.138
RRIRKRPPRLPRPRPRPIEYPRP	-0.156
RRIRSRPPRLPRPRPRPMYNPRP	-0.557
RRIRRRPPRLPRPRPRPGWGPRP	0.497
RRIRMRPPRLPRPRPRPPLRPRP	0.852
RRIRFRPPRLPRPRPRPRQTPRP	-0.0912
RRIRLRPPRLPRPRPRPREGPRP	0.966
RRIRARPPRLPRPRPRPSVWPRP	-0.0231
RRIRIRPPRLPRPRPRPGYKPRP	-0.231
RRIRHRPPRLPRPRPRPESCPRP	0.0512
RRIRGRPPRLPRPRPRPWTTPRP	0.00743
RRIRQRPPRLPRPRPRPPWQPRP	0.729
RRIRQRPPRLPRPRPRPPVSPRP	-0.203
RRIRFRPPRLPRPRPRPWTGPRP	-0.00822
RRIRCRPPRLPRPRPRPRGNPRP	0.0747
RRIRSRPPRLPRPRPRPQWKPRP	-0.0984
RRIRWRPPRLPRPRPRPIIAPRP	0.00853
RRIRVRPPRLPRPRPRPPKVPRP	0.392
RRIRQRPPRLPRPRPRPMIMPRP	0.0999
RRIRCRPPRLPRPRPRPCLGPRP	-0.224
RRIRNRPPRLPRPRPRPETFPRP	0.00884
RRIRRRPPRLPRPRPRPKQCPRP	0.0754

Sequence	shrunken log2 fold change
RRIRYRPPRLPRPRPRPMNNPRP	-1.28
RRIRRRPPRLPRPRPRPGFQPRP	0.301
RRIRKRPPRLPRPRPRPSPCPRP	0.13
RRIRTRPPRLPRPRPRPSTSPRP	-0.239
RRIRWRPPRLPRPRPRPLHWPRP	0.296
RRIRTRPPRLPRPRPRPFQIPRP	-0.103
RRIRIRPPRLPRPRPRPNFQPRP	-0.417
RRIRNRPPRLPRPRPRPIFGPRP	-0.0237
RRIRMRPPRLPRPRPRPWTHPRP	-0.136
RRIRVRPPRLPRPRPRPMKKPRP	0.0174
RRIRLRPPRLPRPRPRPMENPRP	-0.105
RRIRHRPPRLPRPRPRPHHYPRP	-0.533
RRIRVRPPRLPRPRPRPTFWPRP	0.3
RRIRDRPPRLPRPRPRPWCNPRP	-0.378
RRIRFRPPRLPRPRPRPAMHPRP	0.234
RRIRDRPPRLPRPRPRPIQCPRP	0.0299
RRIRERPPRLPRPRPRPFPEPRP	-0.426
RRIRVRPPRLPRPRPRPNAAPRP	0.0557
RRIRSRPPRLPRPRPRPNSDPRP	-0.0183
RRIRDRPPRLPRPRPRPFPLPRP	0.0517
RRIRIRPPRLPRPRPRPACRPRP	0.225
RRIRNRPPRLPRPRPRPAVPPRP	-0.165
RRIRKRPPRLPRPRPRPKPIPRP	0.742
RRIRIRPPRLPRPRPRPTVFPRP	-0.237
RRIRLRPPRLPRPRPRPLSNPRP	-0.782

Sequence	shrunken log2 fold change
RRIRRRPPRLPRPRPRPLITPRP	-0.0767
RRIRRRPPRLPRPRPRPQQYPRP	-0.0784
RRIRVRPPRLPRPRPRPRLIPRP	-0.293
RRIRLRPPRLPRPRPRPTQQPRP	0.0862
RRIRDRPPRLPRPRPRPWNGPRP	-0.176
RRIRFRPPRLPRPRPRPDMPPRP	-0.016
RRIRARPPRLPRPRPRPVGWPRP	1.02
RRIRERPPRLPRPRPRPGQTPRP	-0.0328
RRIRWRPPRLPRPRPRPEVQPRP	0.69
RRIRQRPPRLPRPRPRPDWCPRP	-0.229
RRIRERPPRLPRPRPRPMQKPRP	0.0175
RRIRCRPPRLPRPRPRPVWKPRP	0.159
RRIRDRPPRLPRPRPRPHTVPRP	-0.0379
RRIRVRPPRLPRPRPRPQTAPRP	0.0297
RRIRARPPRLPRPRPRPSSKPRP	-0.134
RRIRERPPRLPRPRPRPDVCPRP	-0.239
RRIRPRPPRLPRPRPRPSHKPRP	-0.0374
RRIRVRPPRLPRPRPRPDMVPRP	-0.0411
RRIRERPPRLPRPRPRPWTTPRP	-0.0139
RRIRLRPPRLPRPRPRPNPLPRP	0.256
RRIRMRPPRLPRPRPRPMLLPRP	0.0485
RRIRMRPPRLPRPRPRPNYPPRP	-0.445
RRIRLRPPRLPRPRPRPVGMPRP	-0.0033
RRIRFRPPRLPRPRPRPGKLPRP	-0.0682
RRIRIRPPRLPRPRPRPERLPRP	0.0553

Sequence	shrunken log2 fold change
RRIRSRPPRLPRPRPRPAVQPRP	-0.0326
RRIRSRPPRLPRPRPRPCNTPRP	-0.324
RRIRGRPPRLPRPRPRPRQLPRP	0.549
RRIRQRPPRLPRPRPRPNSLPRP	-0.489
RRIRARPPRLPRPRPRPDEIPRP	0.357
RRIRARPPRLPRPRPRPLYRPRP	-0.28
RRIRYRPPRLPRPRPRPGVWPRP	0.171
RRIRIRPPRLPRPRPRPNKTPRP	-0.125
RRIRTRPPRLPRPRPRPCVDPRP	0.0267
RRIRSRPPRLPRPRPRPSHFPRP	-0.182
RRIRQRPPRLPRPRPRPFPVPRP	0.0568
RRIRDRPPRLPRPRPRPGFVPRP	0.0977
RRIRSRPPRLPRPRPRPHYYPRP	-0.581
RRIRFRPPRLPRPRPRPKQNPRP	0.249
RRIRSRPPRLPRPRPRPQWCPRP	0.111
RRIRRRPPRLPRPRPRPVMKPRP	-0.025
RRIRWRPPRLPRPRPRPIYYPRP	-0.488
RRIRQRPPRLPRPRPRPQKAPRP	-0.109
RRIRNRPPRLPRPRPRPGWHPRP	-0.154
RRIRPRPPRLPRPRPRPREEPRP	0.111
RRIRSRPPRLPRPRPRPHPTPRP	0.129
RRIRSRPPRLPRPRPRPFPNPRP	-0.133
RRIRMRPPRLPRPRPRPMIKPRP	-0.262
RRIRSRPPRLPRPRPRPMHVPRP	-0.00553
RRIRYRPPRLPRPRPRPRRQPRP	-0.232

Sequence	shrunken log2 fold change
RRIRVRPPRLPRPRPRPAKDPRP	0.00226
RRIRCRPPRLPRPRPRPHIHPRP	-0.759
RRIRLRPPRLPRPRPRPWVCPRP	-0.0462
RRIRWRPPRLPRPRPRPAFWPRP	0.708
RRIRKRPPRLPRPRPRPDTTPRP	0.0419
RRIRIRPPRLPRPRPRPFVTPRP	-0.938
RRIRKRPPRLPRPRPRPSIPPRP	-1.13
RRIRGRPPRLPRPRPRPARRPRP	0.739
RRIRGRPPRLPRPRPRPSGYPRP	-0.167
RRIRNRPPRLPRPRPRPAYPPRP	0.0183
RRIRGRPPRLPRPRPRPWQSPRP	0.161
RRIRFRPPRLPRPRPRPKHRPRP	-0.094
RRIRHRPPRLPRPRPRPPMPPRP	0.108
RRIRWRPPRLPRPRPRPDSCPRP	-0.0201
RRIRWRPPRLPRPRPRPSMHPRP	-0.0863
RRIRVRPPRLPRPRPRPWFNPRP	-0.437
RRIRFRPPRLPRPRPRPWNVPRP	-0.157
RRIRQRPPRLPRPRPRPRAQPRP	-0.0701
RRIRARPPRLPRPRPRPFHKPRP	-0.148
RRIRDRPPRLPRPRPRPRLQPRP	0.0983
RRIRMRPPRLPRPRPRPPLDPRP	1.03
RRIRFRPPRLPRPRPRPCQNPRP	0.0482
RRIRKRPPRLPRPRPRPRQQPRP	0.395
RRIRHRPPRLPRPRPRPAFTPRP	-0.311
RRIRWRPPRLPRPRPRPFFKPRP	-0.0879
